Results taken from the RNAGym collection of RNA variant scans (doi:10.1073/pnas.2313332121).

B1: TPR t1 (parent)
chain: GACCAAUCUGCCCUCAGAGCUCGAGAACAUCUUCGGAUGCAGAGGAGGCAGGCUUCGGUGGCGCGAUAGCGCCAACGUCCUCAACCUCCAAUGCAUCCCACCACAUGAUGAUGCCUGAAGAGCCUUGGUUUUUUG

Variants of: B1
Test: polymerase ribozyme fitness, log enrichment relative to wild type (log ratio); higher = more active; in vitro selection for triplet polymerase activity
Summary of the method: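 Only genotypes with ≥10 input reads and ≥1 read per output were kept after Illumina sequencing of input and output libraries. These libraries were PCR-built, transcribed mutants of each subunit of a heterodimeric triplet polymerase ribozyme, each put through one triplicate in vitro selection round with frozen incubation at −7 °C, gel excision of extended constructs, streptavidin-bead capture and RT-PCR. Fitness is a logarithmic ratio of genotype enrichment to wild-type enrichment, from inverse-variance-weighted replicate averages, with the logarithm in base 2.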

First: GACCAAUCUGCCAUCAGAGCUCGAGAACAUCUUCGGAUGCAGAAGAGGCAGGCUUCGGUGGCGCGAUAGCGCCAACGUCCUCAACCUCCAAUGCAUCCCACCACAUGAUGAUGCCUGAAGAGCCUUCGUUCUUUG [C13A G44A G127C U131C]
Second: GACCAAUCUGCCCUCAGAGCUCGAGAACAUCUUCGGAUGCAGAGGAGGCAGGCUUCGGUGGCUCGAUAGCGCCAACGUCCUCAACCUCCAAUGCAUCCCACCACAUGAUGAUGCCUGAAUAGCCUUGGUUUUUUU [G63U G120U G135U]
The “polymerase ribozyme fitness (log ratio)” value of the first is higher: -2.25 for the first, -2.56 for the second.

First: GACCAAUCUGUCCUCAGAGCUCGAGAACAUCUUCGGAUGCAGAGGAGGCAGGCUUCGGUGGCGCGAUAGCGCCAACGUCCUCAACCUCCAAUGCAUCCCACCACAUGAUGAUGCCUGAAGAGCCUUGGUUGUUUG [C11U U131G]
Second: GACCAAUCUGCCCUCAGAGCUCGAGAACAUCUUCGGAUGCAGAGGAGGCAGGCUUAGCUGGUGCGAUAGCGCCAACGUCCUCAACCUCCAAUGCAUCCCAACAUAUGAUGAUGCCUGAAGAGCCUUGGUUUUUUG [C56A G58C C62U C101A C104U]
The “polymerase ribozyme fitness (log ratio)” value of the first is lower: -1.44 for the first, -1.18 for the second.

Going from GACCAAUCUGCCCUCAGAGCUCGAGAACAUCUUCGGAUGCAGAGGAGGUAGGCUUCGGUGGCGCGAUACCGCCAACGUCCUCAACCUCCAAUGCAUCCCACCACAUGAUGAUGCCUGAAGAGCCUUGGUUUUUUG [C49U G69C] to GACCAAUCUGCCCUCAGAGCUCGAGAACAUCUUCGGAUGCAGAGGAGGCAGGCUUCGGUCGCGCGAUAGCGCCAACGUCCUCAACCUCCAAUGCAUCCCACUACAUGAUGAUGCCUGAAGAGCCUUGGUUUUUUG [G60C C102U], the “polymerase ribozyme fitness (log ratio)” value falls from -1.79 to -2.87.

Going from GCCCAAUCUACCUUCAGAGCUCGAGAACAUCUUCGGAUGCAGAGGAGGCAGGCUUCGGUGGCGCGAUACCGCCAACGUCCUCAACCUCCAAUGCAUCCCACCACAUGAUGAUGCCUGAAGAGCCUUGGUUUUUUG [A2C G10A C13U G69C] to GACCAAUCUGCCCUCAGAGCUCGAGAACAUCUUCGGAGGCAGAGGAGGUAGGCUUCGGUGGCGCGAUAGCGCCAACGUCGUCAACCUCCAAUGCAUCCCACCACAUGAUGAUGCCUGAAGAGCCUUGGUUUUUUG [U38G C49U C80G], the “polymerase ribozyme fitness (log ratio)” value falls from -3.6 to -4.88.

Compared with GACCAAUCUGCCCUCAGAGCUCGAGAACAUCUUCGGAUGCAGAGGAGGCAGGCUUCGGUGGCGCGUUGGCGCAAACGUCCUAAACCUCCAAUGCAUCCCACCACAUGAUGAUGCCUGAAGAGCCUUGGUUUUUUG [A66U A68G C73A C82A], GACCAAUCUGCCCUCAGAGCUCGAGAACAUCUUCCGAUGCAGAGGAGGCAGGCUUCGGUGGCUCGAUAGCGCCUACGUCCUCAACCUCCGAUGCAUCCCACCACAUGAUGAUGCCUGAAGAGGCUUCGUUUUUUG [G35C G63U A74U A90G C123G G127C] is lower in “polymerase ribozyme fitness (log ratio)” value: -4.09 for the first, -6.64 for the second.

First: GAGCAAUCUGCCCUCAGAGCUAGAGAACAUCUUCGGAUGCAGAGGAGGCAGGCUUCGGUGGCGCGAUAACGCCAACGUCCUCAACCUCCAAUGCAUCCCACCACAUGAUGAUGCCUGAAGAGCGUUGCUUUUUUG [C3G C22A G69A C124G G128C]
Second: GACCAUUCUGCCCUCAGAGCUCGAGAACAUCUUCGGAUGCAUAGGAGGCAAGCUUCGGUGGCGCGAUAGCGCCAACGUCCUCAACCUCCAAUGCAUCCCACCACAUGAUGAUGCCUGAAGAGCCUUGGUUUUUUG [A6U G42U G51A]
The “polymerase ribozyme fitness (log ratio)” value of the first is higher: -4.83 for the first, -5.8 for the second.

First: GACCAAUCUGCUCACAGAGCUCGAGAACAUCUUCGGAUGCAGAGGAGGCAGGCUUCGGUGGCGCGAUAGCGCCAACGUCCUCAACCUGCAAUGCAUCCCACCACAUGAUGAUGCCUGAAGAGCCUUGGUUUUUUG [C12U U14A C88G]
Second: GACCAAUCUGCCCUCAGAGCUCGAGAACAUCUUCGGAUGCAGAGGAGGGAGGCUUCGGUGGCGCGAUAGCGCCAACGUCCUCAACCUCCAAUGCAUCCCACCACAUGAUGAUGCCUGAAGAGUCUUGGUUUUUUG [C49G C123U]
The “polymerase ribozyme fitness (log ratio)” value of the first is lower: -1.12 for the first, 0.717 for the second.

Compared with GACCAUUCUGCCCUCAGAGCUCGAGAACAUCUUCGGAUGCAGAAGAGGCUGGCUUCGGUGGCGCGAUAGCGCCAACGUCCUCAACCUCCAAUGGAUCCCACCACAUGAUGAUGCCUGAAGAGCCUUGGUUUUUUG [A6U G44A A50U C94G], GACCAAUCUGCCCUCAGAGCUCGAGAACAUUUUCGGAUGCAGAGGAGGCAGGCUUCGGUGGCGCGAUAGCGCCAACGUCCUCAACCUCCAAUGCAUCCCACCACAUGAUGAAACCUGAAGAGCCUUGGUUUUUUG [C31U U112A G113A] is lower in “polymerase ribozyme fitness (log ratio)” value: -4.1 for the first, -4.76 for the second.

Compared with GACCAAUGUGCCCUCAGAGCUCGAGAACAUCUUCGGAUGCAGAGGAGGCAGGGUUUGGUGGCGCGAUAGCGCCAACGUCCUCAACCUCCAAUCCAUCCCACCACAUGAUGAUGCCUGAAGAGCCUUGGUUUUUUG [C8G C53G C56U G93C], GACCAAUCUGCCCUCAGAGCUCGAUAACAUCUUCAGAUGCUGAGGAGGCAGGCUUCGGUGGCGCGAUAGCGCCAACGUCCUCAACCUCCAAUGCAUCCCACCACAUGAUGAGGCCUGAAGAGCCUUGGUUUUUUG [G25U G35A A41U U112G] is lower in “polymerase ribozyme fitness (log ratio)” value: 0.798 for the first, -7.04 for the second.

First: GACCAAUCUGCCCUCAGAGCUCGAGAACAUCUUCGGAUGCAGAGGAGCCAGGCUUCGGUGCCGCGAUAGCGCCAACGUCCUCAACCUCCAAUGCAUCCCACCACAUGAUGAUGCCUGAAGAGGCUUGGUUUUUUG [G48C G61C C123G]
Second: GACCAAUCUGCCCUCAGAGCUCGAGAACAUCUUCGGAUGUAGAGGAGGCAGGCUUCGGUGGCGCGAUAGCGCCAACGUCCUCAACCUCCAACGCAUCCCACCACAUGAUAAUGCCUCAAGAGCCUUGGUUUUUUG [C40U U92C G110A G117C]
The “polymerase ribozyme fitness (log ratio)” value of the first is higher: -0.406 for the first, -6.39 for the second.

In the case of GACCGAUCUGCCCUCAGAGCUCGAGUACAUCCUCGGAUGCAGAGGAGGCAGGCUUCGGUGGCGCGAUAGCGCCAACGUCCUCAACCUCCAAUGCAUCCCACCACAUGAUGAUGCCUGAAGAGCCUUGGUUUUUUG [A5G A26U U32C], the “polymerase ribozyme fitness (log ratio)” value is reported as -2.95.
